# Data published in patent publication US20180118799A1 (NATIONAL INSTITUTE OF ADVANCED INDUSTRIAL SCIENCE AND …, published 2018).
# Changes are numbered by the printed parent chain.
# T1: Fc-fusion G-CSF receptor
# T1 construct: also called granulocyte colony-stimulating factor receptor
# T1 sequence (Q99062 whole entry, species assumed, looked up): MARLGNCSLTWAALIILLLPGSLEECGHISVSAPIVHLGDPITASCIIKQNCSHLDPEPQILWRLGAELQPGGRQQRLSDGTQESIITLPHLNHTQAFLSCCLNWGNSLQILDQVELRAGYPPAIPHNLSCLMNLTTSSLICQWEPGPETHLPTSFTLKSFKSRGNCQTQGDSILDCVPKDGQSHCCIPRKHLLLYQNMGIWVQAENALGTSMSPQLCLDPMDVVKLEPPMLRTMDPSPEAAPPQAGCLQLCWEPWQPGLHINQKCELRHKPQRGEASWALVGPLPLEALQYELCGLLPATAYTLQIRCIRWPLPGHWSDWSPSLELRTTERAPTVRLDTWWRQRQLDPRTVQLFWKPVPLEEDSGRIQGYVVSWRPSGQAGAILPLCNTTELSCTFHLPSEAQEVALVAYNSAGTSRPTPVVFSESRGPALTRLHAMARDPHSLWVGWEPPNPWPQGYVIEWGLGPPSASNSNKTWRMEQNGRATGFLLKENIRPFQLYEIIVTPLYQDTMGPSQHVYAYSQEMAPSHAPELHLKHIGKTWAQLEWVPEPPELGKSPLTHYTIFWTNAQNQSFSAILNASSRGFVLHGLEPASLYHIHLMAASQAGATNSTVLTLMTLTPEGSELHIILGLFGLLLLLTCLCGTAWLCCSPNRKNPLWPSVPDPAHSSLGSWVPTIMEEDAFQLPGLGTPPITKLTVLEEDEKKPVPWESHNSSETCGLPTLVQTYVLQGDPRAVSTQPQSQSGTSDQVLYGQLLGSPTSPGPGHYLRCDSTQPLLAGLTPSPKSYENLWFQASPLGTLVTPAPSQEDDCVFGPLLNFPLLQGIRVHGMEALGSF
# B1: linear control G-CSF (ligand)
# chain: MAPLGPASSLPQSFLLKSLEQVRKIQGDGAALQEKLCATYKLCHPEELVLLGHSLGIPWAPLSSCPSQALQLAGCLSQLHSGLFLYQGLLQALEGISPELGPTLDTLQLDVADFATTIWQQMEELGMAPALQPTQGAMPAFASAFQRRAGGVLVASHLQSFLEVSYRVLRHLAQP
# notes: Linear polypeptide of 175 amino acids; also called linear G-CSF
# B2: G-CSF(C163) (ligand)
# chain: SQSFLLKSLEQVRKIQGDGAALQEKLCATYKLCHPEELVLLGHSLGIPWAPLSSCPSQALQLAGCLSQLHSGLFLYQGLLQALEGISPELGPTLDTLQLDVADFATTIWQQMEELGMAPALQPTQGAMPAFASAFQRRAGGVLVASHLQSFLEVSYRVLRHLG
# modifications: backbone cyclized: amino group of serine at the N-terminus and carbonyl group of glycine at the C-terminus linked by a peptide bond
# notes: also called cyclized G-CSF(C163)
# B3: G-CSF(C177) (ligand)
# chain: SMAPLGPASSLPQSFLLKSLEQVRKIQGDGAALQEKLCATYKLCHPEELVLLGHSLGIPWAPLSSCPSQALQLAGCLSQLHSGLFLYQGLLQALEGISPELGPTLDTLQLDVADFATTIWQQMEELGMAPALQPTQGAMPAFASAFQRRAGGVLVASHLQSFLEVSYRVLRHLAQPG
# modifications: backbone cyclized: amino group of serine at the N-terminus and carbonyl group of glycine at the C-terminus linked by a peptide bond
# notes: Cyclized with split inteins; also called cyclized G-CSF(C177)
# B4: G-CSF(C166) (ligand)
# chain: SSLPQSFLLKSLEQVRKIQGDGAALQEKLCATYKLCHPEELVLLGHSLGIPWAPLSSCPSQALQLAGCLSQLHSGLFLYQGLLQALEGISPELGPTLDTLQLDVADFATTIWQQMEELGMAPALQPTQGAMPAFASAFQRRAGGVLVASHLQSFLEVSYRVLRHLG
# modifications: backbone cyclized: amino group of serine at the N-terminus and carbonyl group of glycine at the C-terminus linked by a peptide bond
# notes: also called cyclized G-CSF(C166)
# B5: filgrastim (ligand)
# chain: B1 chain with A2T, S18C
# notes: Its source in the assay is not described
# B6: G-CSF(C170) (ligand)
# chain: SGPASSLPQSFLLKSLEQVRKIQGDGAALQEKLCATYKLCHPEELVLLGHSLGIPWAPLSSCPSQALQLAGCLSQLHSGLFLYQGLLQALEGISPELGPTLDTLQLDVADFATTIWQQMEELGMAPALQPTQGAMPAFASAFQRRAGGVLVASHLQSFLEVSYRVLRHLG
# modifications: backbone cyclized: amino group of serine at the N-terminus and carbonyl group of glycine at the C-terminus linked by a peptide bond
# notes: 170 amino acids; also called cyclized G-CSF(C170)
# Biological target: T1, Fc-fusion G-CSF receptor
# Test: SPR, Biacore T100, Fc-fusion G-CSF receptor captured on immobilized Protein G, single kinetic mode, 25 C (Example 8)
# Method: First, Protein G was immobilized on a flow cell of a sensor chip CMS (GE Health care) by using a maleimide coupling reaction. Next, a running buffer HBS-P (10 mM HEPES pH 7.4, 150 mM NaCl, and 0.05% v/v Surfactant P20) in which an Fc-fusion G-CSF receptor had been dissolved was added to immobilize the receptor on the chip. The SPR measurement was carried out using Biacore T100 (Biacore) and the reaction temperature was 25° C. A 2-fold dilution series from 1.25 nM to 20 nM of the sample solution was prepared, and a single kinetic mode was used for measurement and analysis.
# (§1) The observation results were analyzed using BIAevaluation version 4.1 to calculate a dissociation constant.
row,Kd [nM],Binder
1,0.43,B1
2,0.57,B2
3,0.57,B3

# Biological target: T1, Fc-fusion G-CSF receptor
# Test: SPR, Biacore T200, Fc-fusion G-CSF receptor captured on immobilized Protein A, single kinetic mode, 25 C (Example 19)
# Method: (§2) First, commercially available Protein A (Nacalai Tesque, Inc.) was immobilized on a flow cell of a sensor chip CM5 (GE Health care) by using an amine coupling reaction. Next, a running buffer HBS-P (10 mM HEPES pH 7.4, 150 mM NaCl, and 0.05% v/v Surfactant P20) in which an Fc-fusion G-CSF receptor had been dissolved was added to immobilize the receptor on the chip. The SPR measurement was carried out using Biacore T200 (Biacore) and the reaction temperature was 25° C. A 2-fold dilution series from 1.25 nM to 20 nM of the sample solution was prepared, and a single kinetic mode was used for measurement and analysis. When compared with Example 8, this Example had improvements such as use of Biacore T200, which has higher sensitivity than Biacore T100, and use of commercially available Protein A. The improvements helped increase the sensitivity and reproducibility of measurement. Then, the linear G-CSF, G-CSF(C177), and G-CSF(C163) as measured in Example 8 were remeasured and the resulting analysis values were used for comparison.
# as §1
row,Kd [nM],Binder
1,0.06,B4
2,0.27,B5
3,0.05,B6

# Biological target: T1, Fc-fusion G-CSF receptor
# Test: SPR, Biacore T200, Fc-fusion G-CSF receptor captured on immobilized Protein A, single kinetic mode, 25 C (Example 19, remeasured)
# Method: as §2
row,Kd [nM],Binder
1,0.08,B1
2,0.1,B2
3,0.06,B3
